According to patent US20250152746A1, “BASE EDITING OF ANGPTL3 AND METHODS OF USING SAME FOR TREATMENT OF DISEASE” (Verve Therapeutics, Inc., priority 2020, published 2025):
In the oligonucleotide strings, read from the 5' end, every base follows the letter of its sugar. An asterisk marks phosphorothioate; unmarked linkages are phosphodiester. Other units and linkages are bracketed, terminal groups are in braces. A string of capitals states the bases alone. m = 2'-O-methyl; r = 2'-OH (RNA)

B1: GA209: PCSK9 gRNA; protospacer CTTGGCAGTTGAGCACGCGC (SEQ ID NO: 203) (nucleic acid)
guide: CUUGGCAGUUGAGCACGCGCGUUUUAGAGCUAGAAAUAGCAAGUUAAAAUAAGGCUAGUCCGUUAUCAACUUGAAAAAGUGGCACCGAGUCGGUGCUUUU
modifications: sugars from the 5' end m3 r94 m3, linkages s3 o93 s3 (s phosphorothioate, o phosphodiester), T or U not given here
B2: GA206: PCSK9 gRNA; protospacer CCGGTGGTCACTCTGTATGC (SEQ ID NO: 200) (nucleic acid)
guide: CCGGUGGUCACUCUGUAUGCGUUUUAGAGCUAGAAAUAGCAAGUUAAAAUAAGGCUAGUCCGUUAUCAACUUGAAAAAGUGGCACCGAGUCGGUGCUUUU
modifications: sugars from the 5' end m3 r94 m3, linkages s3 o93 s3 (s phosphorothioate, o phosphodiester), T or U not given here
B3: GA159: PCSK9 gRNA; protospacer GCGTTCCGAGGAGGACGGCC (SEQ ID NO: 153) (nucleic acid)
guide: mG*mC*mG*rUrUrCrCrGrArGrGrArGrGrArCrGrGrCrCrGrUrUrUrUrArGrArGrCrUrArGrArArArUrArGrCrArArGrUrUrArArArArUrArArGrGrCrUrArGrUrCrCrGrUrUrArUrCrArArCrUrUrGrArArArArArGrUrGrGrCrArCrCrGrArGrUrCrGrGrUrGrCrU*mU*mU*mU
B4: GA158: PCSK9 gRNA; protospacer GCTAGCCTTGCGTTCCGAGG (SEQ ID NO: 152) (nucleic acid)
guide: mG*mC*mU*rArGrCrCrUrUrGrCrGrUrUrCrCrGrArGrGrGrUrUrUrUrArGrArGrCrUrArGrArArArUrArGrCrArArGrUrUrArArArArUrArArGrGrCrUrArGrUrCrCrGrUrUrArUrCrArArCrUrUrGrArArArArArGrUrGrGrCrArCrCrGrArGrUrCrGrGrUrGrCrU*mU*mU*mU
B5: GA213: PCSK9 gRNA; protospacer CGTGCTCAACTGCCAAGGGA (SEQ ID NO: 207) (nucleic acid)
guide: CGUGCUCAACUGCCAAGGGAGUUUUAGAGCUAGAAAUAGCAAGUUAAAAUAAGGCUAGUCCGUUAUCAACUUGAAAAAGUGGCACCGAGUCGGUGCUUUU
modifications: sugars from the 5' end m3 r94 m3, linkages s3 o93 s3 (s phosphorothioate, o phosphodiester), T or U not given here
B6: GA203: PCSK9 gRNA; protospacer TGACCCTGCCCTCGATTTCC (SEQ ID NO: 197) (nucleic acid)
guide: UGACCCUGCCCUCGAUUUCCGUUUUAGAGCUAGAAAUAGCAAGUUAAAAUAAGGCUAGUCCGUUAUCAACUUGAAAAAGUGGCACCGAGUCGGUGCUUUU
modifications: sugars from the 5' end m3 r94 m3, linkages s3 o93 s3 (s phosphorothioate, o phosphodiester), T or U not given here
B7: GA210: PCSK9 gRNA; protospacer CTGCGCGTGCTCAACTGCCA (SEQ ID NO: 204) (nucleic acid)
guide: CUGCGCGUGCUCAACUGCCAGUUUUAGAGCUAGAAAUAGCAAGUUAAAAUAAGGCUAGUCCGUUAUCAACUUGAAAAAGUGGCACCGAGUCGGUGCUUUU
modifications: sugars from the 5' end m3 r94 m3, linkages s3 o93 s3 (s phosphorothioate, o phosphodiester), T or U not given here
B8: GA207: PCSK9 gRNA; protospacer GGAAATCGAGGGCAGGGTCA (SEQ ID NO: 201) (nucleic acid)
guide: GGAAAUCGAGGGCAGGGUCAGUUUUAGAGCUAGAAAUAGCAAGUUAAAAUAAGGCUAGUCCGUUAUCAACUUGAAAAAGUGGCACCGAGUCGGUGCUUUU
modifications: sugars from the 5' end m3 r94 m3, linkages s3 o93 s3 (s phosphorothioate, o phosphodiester), T or U not given here
B9: GA208: PCSK9 gRNA; protospacer CCAGCATACAGAGTGACCAC (SEQ ID NO: 202) (nucleic acid)
guide: CCAGCAUACAGAGUGACCACGUUUUAGAGCUAGAAAUAGCAAGUUAAAAUAAGGCUAGUCCGUUAUCAACUUGAAAAAGUGGCACCGAGUCGGUGCUUUU
modifications: sugars from the 5' end m3 r94 m3, linkages s3 o93 s3 (s phosphorothioate, o phosphodiester), T or U not given here
B10: GA202: PCSK9 gRNA; protospacer AAGCGGGTCCCGTCCTCCTC (SEQ ID NO: 196) (nucleic acid)
guide: AAGCGGGUCCCGUCCUCCUCGUUUUAGAGCUAGAAAUAGCAAGUUAAAAUAAGGCUAGUCCGUUAUCAACUUGAAAAAGUGGCACCGAGUCGGUGCUUUU
modifications: sugars from the 5' end m3 r94 m3, linkages s3 o93 s3 (s phosphorothioate, o phosphodiester), T or U not given here
B11: GA204: PCSK9 gRNA; protospacer CACTCTGTATGCTGGTGTCT (SEQ ID NO: 198) (nucleic acid)
guide: CACUCUGUAUGCUGGUGUCUGUUUUAGAGCUAGAAAUAGCAAGUUAAAAUAAGGCUAGUCCGUUAUCAACUUGAAAAAGUGGCACCGAGUCGGUGCUUUU
modifications: sugars from the 5' end m3 r94 m3, linkages s3 o93 s3 (s phosphorothioate, o phosphodiester), T or U not given here
B12: GA212: PCSK9 gRNA; protospacer CGGGATGCCGGCGTGGCCAA (SEQ ID NO: 206) (nucleic acid)
guide: CGGGAUGCCGGCGUGGCCAAGUUUUAGAGCUAGAAAUAGCAAGUUAAAAUAAGGCUAGUCCGUUAUCAACUUGAAAAAGUGGCACCGAGUCGGUGCUUUU
modifications: sugars from the 5' end m3 r94 m3, linkages s3 o93 s3 (s phosphorothioate, o phosphodiester), T or U not given here
B13: GA211: PCSK9 gRNA; protospacer TGCGCGTGCTCAACTGCCAA (SEQ ID NO: 205) (nucleic acid)
guide: UGCGCGUGCUCAACUGCCAAGUUUUAGAGCUAGAAAUAGCAAGUUAAAAUAAGGCUAGUCCGUUAUCAACUUGAAAAAGUGGCACCGAGUCGGUGCUUUU
modifications: sugars from the 5' end m3 r94 m3, linkages s3 o93 s3 (s phosphorothioate, o phosphodiester), T or U not given here
B14: GA205: PCSK9 gRNA; protospacer CCCTGCCCTCGATTTCCCGG (SEQ ID NO: 199) (nucleic acid)
guide: CCCUGCCCUCGAUUUCCCGGGUUUUAGAGCUAGAAAUAGCAAGUUAAAAUAAGGCUAGUCCGUUAUCAACUUGAAAAAGUGGCACCGAGUCGGUGCUUUU
modifications: sugars from the 5' end m3 r94 m3, linkages s3 o93 s3 (s phosphorothioate, o phosphodiester), T or U not given here

Legend:
PCSK9 gene [1] = experiment: PCSK9 gRNA/SpCas9 editing in primary cynomolgus hepatocytes (Tables 2, 22); assay type: cell-based, cynomolgus monkey; conditions: SpCas9 mRNA MS002 1:1 by weight; for Cyno Primary Hepatocyte Editing % 100: 100 ng/RNA/mL; for Cyno Primary Hepatocyte Editing % 500: 500 ng/RNA/mL; for Cyno Primary Hepatocyte Editing % 2500: 2500 ng/RNA/mL
PCSK9 gene [2] = experiment: PCSK9 gRNA/SpCas9 editing in primary human hepatocytes (Tables 2, 4); assay type: cell-based; conditions: SpCas9 mRNA MS002 1:1 by weight; for Human Primary Hepatocyte Editing % 100: 100 ng/RNA/mL; for Human Primary Hepatocyte Editing % 500: 500 ng/RNA/mL; for Human Primary Hepatocyte Editing % 2500: 2500 ng/RNA/mL
Outline: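 Primary human hepatocytes co-transfected with PCSK9 gRNA plus SpCas9 mRNA (1:1 by weight) at 2500, 500 or 100 ng RNA/mL, or 2500–250 ng/mL for tracr-modified guides. Editing at the target site read by amplicon next-generation sequencing of extracted genomic DNA.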

Row | Molecule | Cyno Primary Hepatocyte Editing % 100 (PCSK9 gene [1]) [%] | Cyno Primary Hepatocyte Editing % 500 (PCSK9 gene [1]) [%] | Cyno Primary Hepatocyte Editing % 2500 (PCSK9 gene [1]) [%] | Human Primary Hepatocyte Editing % 100 (PCSK9 gene [2]) [%] | Human Primary Hepatocyte Editing % 500 (PCSK9 gene [2]) [%] | Human Primary Hepatocyte Editing % 2500 (PCSK9 gene [2]) [%]
1 | B1 | 3.59 | 13.96 | 40.78 | 0.02 | 8.76 | 33.23
2 | B2 | 0.84 | 2.73 | 16.9 | 0.85 | 2.7 | 20.73
3 | B3 | 1.19 | 3.69 | 12.21 | 1.35 | 3.74 | 14.68
4 | B4 | 1.04 | 4.42 | 18.27 | 2 | 6.55 | 37.94
5 | B5 | 2.73 | 16.35 | 45.22 | 2.17 | 8.77 | 24.28
6 | B6 | 3.66 | 10.49 | 32.85 | 2.57 | 12.76 | 37.02
7 | B7 | 4.5 | 19.72 | 54.88 | 0.04 | 5.86 | 14.3
8 | B8 | 1.05 | 2.72 | 19.16 | 0.84 | 3.46 | 20.79
9 | B9 | 1.15 | 6.01 | 25.07 | 1.38 | 5.72 | 25.76
10 | B10 | 1.54 | 8.91 | 31.13 | 2.54 | 10.75 | 34.75
11 | B11 | 0.91 | 5.27 | 19.37 | 1.27 | 8.98 | 24.98
12 | B12 | 1.96 | 16.53 | 54.89 | 1.17 | 5.59 | 12.45
13 | B13 | 1.01 | 8.3 | 28.63 | 1.31 | 10.29 | 38.07
14 | B14 | 3.01 | 12.04 | 36.43 | 3.74 | 12.42 | 38.04
